What was measured:
[1] = target: his-labeled human IL-13 (immunogen A) (human) (UniProt P35225); experiment: FACS blocking, biotin-IL-13 on IL-13Ra1/IL-4Ra HEK293 cells; antibody at 0.27 nM
[2] = target: his-labeled human IL-13 (immunogen A) (human) (UniProt P35225); experiment: FACS blocking, biotin-IL-13 on IL-13Ra1/IL-4Ra HEK293 cells; antibody at 166.67 nM
[3] = target: his-labeled human IL-13 (immunogen A) (human) (UniProt P35225); experiment: ELISA, biotin-immunogen A; antibody at 2.67 nM
[4] = target: his-labeled human IL-13 (immunogen A) (human) (UniProt P35225); experiment: FACS blocking, biotin-IL-13 on IL-13Ra2 HEK293 cells; antibody at 0.27 nM
[5] = target: his-labeled human IL-13 (immunogen A) (human) (UniProt P35225); experiment: FACS blocking, biotin-IL-13 on IL-13Ra2 HEK293 cells; antibody at 0.05 nM
[6] = target: cynomolgus IL-13 (purchased from sino biological) (cynomolgus) (UniProt Q0PW92); experiment: ELISA, cynomolgus IL-13; antibody at 0.11 nM
Chain of cynomolgus IL-13 (purchased from sino biological) (cynomolgus) (Q0PW92 entry or part of it): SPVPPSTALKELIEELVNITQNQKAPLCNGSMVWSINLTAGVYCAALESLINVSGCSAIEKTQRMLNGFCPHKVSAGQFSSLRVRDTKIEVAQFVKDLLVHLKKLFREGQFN

[7] = target: his-labeled human IL-13 (immunogen A) (human) (UniProt P35225); experiment: cell-based or functional assay
[8] = target: his-labeled human IL-13 (immunogen A) (human) (UniProt P35225); experiment: FACS blocking, biotin-IL-13 on IL-13Ra1/IL-4Ra HEK293 cells; antibody at 33.33 nM
[9] = target: his-labeled human IL-13 (immunogen A) (human) (UniProt P35225); experiment: FACS blocking, biotin-IL-13 on IL-13Ra2 HEK293 cells; antibody at 166.67 nM
[10] = target: his-labeled human IL-13 (immunogen A) (human) (UniProt P35225); experiment: FACS blocking, biotin-IL-13 on IL-13Ra2 HEK293 cells; antibody at 33.33 nM
[11] = target: cynomolgus IL-13 (purchased from sino biological) (cynomolgus) (UniProt Q0PW92); experiment: ELISA, cynomolgus IL-13; antibody at 0.021 nM
[12] = target: cynomolgus IL-13 (purchased from sino biological) (cynomolgus) (UniProt Q0PW92); experiment: ELISA, cynomolgus IL-13; antibody at 2.67 nM
[13] = target: his-labeled human IL-13 (immunogen A) (human) (UniProt P35225); experiment: FACS blocking, biotin-IL-13 on IL-13Ra2 HEK293 cells; antibody at 0.002 nM
[14] = target: his-labeled human IL-13 (immunogen A) (human) (UniProt P35225); experiment: FACS blocking, biotin-IL-13 on IL-13Ra1/IL-4Ra HEK293 cells; antibody at 0.05 nM
[15] = target: cynomolgus IL-13 (purchased from sino biological) (cynomolgus) (UniProt Q0PW92); experiment: ELISA, cynomolgus IL-13; antibody at 0.004 nM
[16] = target: his-labeled human IL-13 (immunogen A) (human) (UniProt P35225); experiment: ELISA, biotin-immunogen A; antibody at 0.11 nM
[17] = target: his-labeled human IL-13 (immunogen A) (human) (UniProt P35225); experiment: FACS blocking, biotin-IL-13 on IL-13Ra2 HEK293 cells; antibody at 1.33 nM
[18] = target: his-labeled human IL-13 (immunogen A) (human) (UniProt P35225); experiment: FACS blocking, biotin-IL-13 on IL-13Ra1/IL-4Ra HEK293 cells; antibody at 0.002 nM
[19] = target: his-labeled human IL-13 (immunogen A) (human) (UniProt P35225); experiment: ELISA, biotin-immunogen A; antibody at 13.33 nM
[20] = target: his-labeled human IL-13 (immunogen A) (human) (UniProt P35225); experiment: FACS blocking, biotin-IL-13 on IL-13Ra1/IL-4Ra HEK293 cells; antibody at 0.01 nM
[21] = target: his-labeled human IL-13 (immunogen A) (human) (UniProt P35225); experiment: FACS blocking, biotin-IL-13 on IL-13Ra1/IL-4Ra HEK293 cells; antibody at 1.33 nM
[22] = target: cynomolgus IL-13 (purchased from sino biological) (cynomolgus) (UniProt Q0PW92); experiment: ELISA, cynomolgus IL-13; antibody at 0.53 nM
[23] = target: his-labeled human IL-13 (immunogen A) (human) (UniProt P35225); experiment: FACS blocking, biotin-IL-13 on IL-13Ra1/IL-4Ra HEK293 cells; antibody at 6.67 nM
[24] = target: his-labeled human IL-13 (immunogen A) (human) (UniProt P35225); experiment: FACS blocking, biotin-IL-13 on IL-13Ra2 HEK293 cells; antibody at 6.67 nM
[25] = target: his-labeled human IL-13 (immunogen A) (human) (UniProt P35225); experiment: FACS blocking, biotin-IL-13 on IL-13Ra2 HEK293 cells; antibody at 0.01 nM

B1: 28A2E11 (lead antibody, mouse hybridoma) (antibody, V domains shown)
VH: EVQLQQSGAELVKPGASVKLSCTASGFNIKDYYMHWVKQRTEQGLEWIGRIDPEDGETKYAPKFHDKATLTADTSSNTAYLQFSSLASEDTAVYYCTRYDYYGPFAYWGQGTLVTVSA
VL: QAVVTQESVLTTSPGETVTLTCRSSTGAVTTSNYANWVQEKPDHLFTGLIGGTNNRAPGVPARFSGSLIGDKAALTITGAQTEDEAIYFCALWYINHFIFGSGTKVTVL
notes: Mouse monoclonal antibody purified from hybridoma supernatant on Protein G
[1]
  mean fluorescence intensity: 64.2
[2]
  mean fluorescence intensity: 24.6
[3]
  OD450 nm: 1.69
[4]
  mean fluorescence intensity: 72.1
[5]
  mean fluorescence intensity: 76.9
[6]
  OD450 nm: 0.35
[7]
  TARC (pg/mL), A549 cells + IL-13 5 ng/mL + TNFα; antibody at 0.001 nM: 1850 pg/mL
  TARC (pg/mL), A549 cells + IL-13 5 ng/mL + TNFα; antibody at 0.004 nM: 1700 pg/mL
  TARC (pg/mL), A549 cells + IL-13 5 ng/mL + TNFα; antibody at 0.021 nM: 1590 pg/mL
  TARC (pg/mL), A549 cells + IL-13 5 ng/mL + TNFα; antibody at 0.11 nM: 1360 pg/mL
  TARC (pg/mL), A549 cells + IL-13 5 ng/mL + TNFα; antibody at 0.5 nM: 601 pg/mL
  TARC (pg/mL), A549 cells + IL-13 5 ng/mL + TNFα; antibody at 2.7 nM: 118 pg/mL
  TARC (pg/mL), A549 cells + IL-13 5 ng/mL + TNFα; antibody at 13.3 nM: 51 pg/mL
  TARC (pg/mL), A549 cells + IL-13 5 ng/mL + TNFα; antibody at 66.7 nM: 56 pg/mL
[8]
  mean fluorescence intensity: 27.2
[9]
  mean fluorescence intensity: 53.3
[10]
  mean fluorescence intensity: 56.6
[11]
  OD450 nm: 0.14
[12]
  OD450 nm: 1.35
[13]
  mean fluorescence intensity: 76.5
[14]
  mean fluorescence intensity: 71.5
[15]
  OD450 nm: 0.08
[16]
  OD450 nm: 0.74
[17]
  mean fluorescence intensity: 60.1
[18]
  mean fluorescence intensity: 74.7
[19]
  OD450 nm: 1.74
[20]
  mean fluorescence intensity: 76.2
[21]
  mean fluorescence intensity: 39.6
[22]
  OD450 nm: 0.83
[23]
  mean fluorescence intensity: 28.8
[24]
  mean fluorescence intensity: 55.9
[25]
  mean fluorescence intensity: 79.7
